Values quoted from earlier work as cited in article PMC7539009.

Target: VPS29 (Homo sapiens) (UniProt Q9UBQ0)
Experiment: ITC

Kd: 20 µM
Substance: TBC1D5 132-158 (from UniProt Q92609)
